In PMC5076501:

Legend:
HSP70-1A, P0DMV8 = assay: co-immunoprecipitation (anti-GFP IP) with immunoblot densitometry; details: chain shown with the change; detergent lysates from stably transfected HEK293 cells; three independent experiments; parent: est. 0.32; read off a plot
calnexin, P27824 = biological target: T1, calnexin, P27824; assay: as above; details: chain shown with the change; detergent lysates from stably transfected HEK293 cells; three independent experiments; parent: est. 0.73; read off a plot
T1 chain: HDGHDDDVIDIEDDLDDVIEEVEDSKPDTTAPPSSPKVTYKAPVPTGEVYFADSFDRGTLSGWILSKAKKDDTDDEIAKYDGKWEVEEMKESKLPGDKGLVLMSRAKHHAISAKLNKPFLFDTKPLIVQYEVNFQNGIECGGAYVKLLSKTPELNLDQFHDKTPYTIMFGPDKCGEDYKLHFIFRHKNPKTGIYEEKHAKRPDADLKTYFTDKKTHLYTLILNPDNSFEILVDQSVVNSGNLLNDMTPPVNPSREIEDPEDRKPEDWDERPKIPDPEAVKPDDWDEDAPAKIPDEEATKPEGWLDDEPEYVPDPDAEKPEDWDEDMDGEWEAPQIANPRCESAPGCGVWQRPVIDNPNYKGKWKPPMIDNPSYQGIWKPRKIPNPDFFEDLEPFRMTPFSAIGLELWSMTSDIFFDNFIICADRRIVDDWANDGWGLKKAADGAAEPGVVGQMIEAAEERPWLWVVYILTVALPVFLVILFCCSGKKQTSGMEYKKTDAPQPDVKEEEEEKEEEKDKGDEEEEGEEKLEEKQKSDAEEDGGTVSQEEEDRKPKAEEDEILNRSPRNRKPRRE

Chain of HSP70-1A, P0DMV8 (P0DMV8 whole entry): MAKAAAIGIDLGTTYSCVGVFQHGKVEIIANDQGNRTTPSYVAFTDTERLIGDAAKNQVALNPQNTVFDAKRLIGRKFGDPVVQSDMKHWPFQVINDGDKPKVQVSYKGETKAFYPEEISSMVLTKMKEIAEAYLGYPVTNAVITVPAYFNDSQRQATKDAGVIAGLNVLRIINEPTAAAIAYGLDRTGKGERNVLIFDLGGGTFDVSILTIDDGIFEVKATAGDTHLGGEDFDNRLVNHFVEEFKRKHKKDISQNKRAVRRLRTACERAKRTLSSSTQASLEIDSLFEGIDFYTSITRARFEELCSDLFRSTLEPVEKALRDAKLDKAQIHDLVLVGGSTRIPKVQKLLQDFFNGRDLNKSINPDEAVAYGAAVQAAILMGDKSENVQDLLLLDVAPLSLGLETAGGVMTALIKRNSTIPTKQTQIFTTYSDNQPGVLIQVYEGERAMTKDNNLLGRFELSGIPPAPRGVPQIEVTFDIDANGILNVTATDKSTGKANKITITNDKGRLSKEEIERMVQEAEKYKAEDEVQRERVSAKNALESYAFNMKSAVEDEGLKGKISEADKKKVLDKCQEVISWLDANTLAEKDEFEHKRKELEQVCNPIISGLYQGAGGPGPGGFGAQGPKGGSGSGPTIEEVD

B1: YFP-tagged wild-type Drosophila melanogaster dopamine transporter, Q7K4Y6 G108Q (protein)
chain: MSPTGHISKSKTPTPHDNDNNSISDERETWSGKVDFLLSVIGFAVDLANVWRFPYLCYKNGGGAFLVPYGIMLVVGGIPLFYMELALGQHNRKGAITCWGRLVPLFKQIGYAVVLIAFYVDFYYNVIIAWSLRFFFASFTNSLPWTSCNNIWNTPNCRPFESQNASRVPVIGNYSDLYAMGNQSLLYNETYMNGSSLDTSAVGHVEGFQSAASEYFNRYILELNRSEGIHDLGAIKWDMALCLLIVYLICYFSLWKGISTSGKVVWFTALFPYAVLLILLIRGLTLPGSFLGIQYYLTPNFSAIYKAEVWVDAATQVFFSLGPGFGVLLAYASYNKYHNNVYKDALLTSFINSATSFIAGFVIFSVLGYMAHTLGVRIEDVATEGPGLVFVVYPAAIATMPASTFWALIFFMMLLTLGLDSSFGGSEAIITALSDEFPKIKRNRELFVAGLFSLYFVVGLASCTQGGFYFFHLLDRYAAGYSILVAVFFEAIAVSWIYGTNRFSEDIRDMIGFPPGRYWQVCWRFVAPIFLLFITVYGLIGYEPLTYADYVYPSWANALGWCIAGSSVVMIPAVAIFKLLSTPGSLRQRFTILTTPWRDQQSMAMVLNGVTTEVTVVRLTDTETAKEPVDV
HSP70-1A, P0DMV8
  response (integrated density (chaperones/DAT)): 0.73
calnexin, P27824
  response (integrated density (chaperones/DAT)): 1.7
